Measured values as given in US20250064890A1, “PROTEIN COMPOSITIONS FOR THE TREATMENT OF INFLAMMATORY DISEASES” (Unichem Laboratories Limited, priority 2021, published 2025).

Assays:
[1] = Body weight change in 5-FU induced OM hamsters; format: in vivo, golden Syrian hamsters; conditions: Day 4 to Day 12, with respect to Day 4
Protocol: In-vivo experiments conducted in healthy golden Syrian hamsters wherein animals were grouped as below:
To induce OM, animals were administered (except normal control) 5-Fluorouracil (5-FU) by intraperitoneal route at doses of 60 mg/kg & 40 mg/kg respectively on first two days. On Day 4, under anesthesia, with aim of enhancing OM, mechanical irritation of the oral mucosa were done using wire brush. Treatment was initiated from Day 4 to Day 12. For group 3 animals 100 μl of vehicle comprising of standard drug Dexamethasone at 0.1 mg was instilled in buccal cheek pouch. For group 4, 5 and 6 animals 100 μl of vehicle comprising of SEQ ID NO. 2 at 0.25 mg, 0.5 mg & 1 mg, respectively was instilled in buccal cheek pouch. At the end of treatment period, cheek pouch of the hamsters was exposed, Mucositis scoring was carried out and images were captured. The animals were then humanely sacrificed, cheek pouch/jugular mucosa were isolated and used for biomarker estimation and histopathological investigation by using ELISA method and Hematoxylin and Eosin (H&E) staining, respectively.
Body weight of each animal was recorded daily till the end of experiment. Percentage change in body weight of the animals was calculated by using formula with respect to Day 4.

[2] = system: oral (buccal) mucosa cells (TR146); experiment: Restoration of mitochondrial membrane potential (JC-1) against 5-FU induced damage; format: cell-based, human; conditions: for MMP: mitochondrial membrane potential, red/green JC-1 fluorescence ratio
Protocol: Oral buccal mucosal cells (TR146) were incubated overnight in 5% CO2 incubator at 37° C. for 24 h. […] After 24 h of treatment, cells were exposed to damage (5-FU 5 mM) for 1.25 h for chemotherapy induced inflammation and exposed to gamma radiation (3.5 kGy) using Cobalt 60 for radiation induced inflammation. After the exposure, the anti-apoptotic effect of SEQ ID NO 2 was determined by restoration of mitochondrial membrane depolarization by JC-1 staining and reduction in apoptotic cell populations (Annexin positive and subG0/G1 cells in cell cycle analysis).
After incubation, the supernatants were discarded and 100 μl of JC1-dye solution (prepared by diluting 1 mM DMSO stock into 10 μM in 1×PBS) was added to each well. The cells were then incubated with the dye in CO2 incubator at 37° C. for 15 min, after which the supernatant was removed, and the cells were washed twice with 1×PBS. 100 μl of 1×PBS was finally added to each well. Red fluorescence (excitation 550 nm, emission 600 nm) and green fluorescence (excitation 485 nm, emission 535 nm) were measured using Biotek Synergy HT plate reader. The mitochondrial membrane potential (Δψm) was calculated as the ratio of intensity of red fluorescence to intensity of green fluorescence.
The percentage increase/restoration in mitochondrial membrane potential (MMP) was calculated as: % Increase=[(R−X)/R]*100 • Where, X=Δψm corresponding to TI+5-FU treated cells or TI+radiation treated cells; R=Δψm corresponding to control cells (FU damaged or Radiation damaged alone)

B1: SEQ ID NO 2: recombinant lectin, variant of the S. rolfsii lectin amino acid sequence (reported as Rec-2 in WO 2010/095143) (protein)
chain: TYKITVRVYQTNPDAFFHPVEKTVWKYANGGTWTITDDQHVLTMGGSGTSGTLRFHADNGESFTATFGVHNYKRWCDIVTNLAADETGMVINQQYYSQKNREEARERQLSNYQVKNAKGRNFQIVYTEAEGNDLHANLIIG
In the case of B1, the “decrease of body weight” value ([1]; G4, 0.25 mg/Animal in buccal cheek pouch) is reported as 3.61%, the “decrease of body weight” value ([1]; G5, 0.5 mg/Animal in buccal cheek pouch) is reported as 4.36% and the “decrease of body weight” value ([1]; G6, 1 mg/Animal in buccal cheek pouch) is reported as 6.8%. The “% Increase in MMP (with respect to control)” value (“% Increase in MMP” below) ([2]; 0.01 μg/ml + 5FU) was “about 67%”, the MMP ([2]; 0.01 μg/ml + 5FU) was 14.1 and the “% Increase in MMP” value ([2]; 0.1 μg/ml + 5FU) was 67.5%. The MMP ([2]; 0.1 μg/ml + 5FU) was 14.2, the “% Increase in MMP” value ([2]; 1 μg/ml + 5FU) was 81.5% and the MMP ([2]; 1 μg/ml + 5FU) was 15.4. For the same molecule, the “% Increase in MMP” value ([2]; 10 μg/ml + 5FU) was 79.6%, the MMP ([2]; 10 μg/ml + 5FU) was 15.2 and the “% Increase in MMP” value ([2]; 25 μg/ml + 5FU) was 104.8%. The MMP ([2]; 25 μg/ml + 5FU) was 17.3, the MMP ([2]; 50 μg/ml + 5FU) was 17.8 and the “% Increase in MMP” value ([2]; 100 μg/ml + 5FU) was 106.2%. The MMP ([2]; 100 μg/ml + 5FU) was 17.5.
